The target in test [1] is T1, recombinant human CD4 (catalogue number: 514-CD/CF, manufactured by R&D Systems) (human, UniProt P01730 26-390).
T1 construct: Bought protein (R&D Systems); also called recombinant CD4
Briefly: SPR, Biacore T100; antibody captured on anti-mouse IgG chip, recombinant human CD4 flowed; 1:1 binding model. On the procedure: In order to kinetically analyze the binding activity of anti-CD4 rat monoclonal antibodies KM4065 to KM4069 and commercially available anti-human CD4 mouse antibody for recombinant human CD4, the binding activity was measured by surface plasmon resonance method (SPR). All of the following manipulations were carried out using the Biacore T100 (manufactured by GE Healthcare Bio-Sciences). The anti-mouse IgG antibody was immobilized on a CM5 sensor chip (manufactured by GE Healthcare Bio-Sciences) by an amine coupling method using a Mouse Antibody Capture Kit (manufactured by GE Healthcare Bio-Sciences) in accordance with the protocols attached thereto. Anti-CD4 rat monoclonal antibodies KM4065 to KM4069, Leu-3a (BD Biosciences), OKT4 (BioLegend) and 13B8.2 (Beckman Coulter) were added to be captured on the anti-mouse IgG antibody-immobilized chip to give 100 RU (resonance unit), respectively. Thereafter, the recombinant human CD4 (manufactured by R&D) diluted from 2500 ng/mL in five steps was allowed to run at a flow rate of 30 μL/min onto the chip, and the sensorgram corresponding to each concentration was obtained. The analysis was carried out in the 1:1 binding model using an analysis software attached to the apparatus, thereby calculating an association rate constant ka and a dissociation rate constant kd of individual antibodies for the human CD4.
As a result, an association rate constant (hereinafter, referred to as “ka”), a dissociation rate constant (hereinafter, referred to as “kd”) and a dissociation constant KD (kd/ka) of individual antibodies thus obtained are given in Table 2.
For orientation: Surface plasmon resonance follows binding to a sensor surface in real time, without labels.

Test [2] addresses T1, recombinant human CD4 (catalogue …). Briefly: SPR, Biacore T100; antibody captured on anti-human IgG chip, recombinant human CD4 flowed; 1:1 binding model. Here is the method: (§1) In order to kinetically analyze the binding activity of anti-CD4 chimeric antibodies KM4045 to KM4049, 6G5-1 and 6G5-P to recombinant human CD4, the binding activity was measured by surface plasmon resonance method (SPR). All of the following manipulations were carried out using a Biacore T100 (manufactured by GE Healthcare Bio-Sciences). The anti-human IgG antibody was immobilized on a CM5 sensor chip (manufactured by GE Healthcare Bio-Sciences) by an amine coupling method using a Human Antibody Capture Kit (manufactured by GE Healthcare Bio-Sciences) in accordance with the protocols attached thereto. An assay sample (anti-CD4 chimeric antibodies KM4045 to KM4049) was added to be captured on the anti-human IgG antibody-immobilized chip to give 100 RU (resonance unit). Thereafter, the recombinant human CD4 (manufactured by R&D) diluted from 2500 ng/mL in five steps was allowed to run at a flow rate of 30 μL/min onto the chip, and the sensorgram corresponding to each concentration was obtained. The analysis was carried out in the 1:1 binding model using an analysis software attached to the apparatus, Biacore T100 Evaluation software (manufactured by Biacore), thereby calculating an association rate constant ka and a dissociation rate constant kd of respective antibodies for human CD4.
As a result, an association rate constant ka, a dissociation rate constant kd, and a dissociation constant KD (kd/ka) of individual antibodies thus obtained are given in Table 5.

Test [3] shares this target. Description: Biacore T100.
Test [4] shares this target. Briefly: SPR, Biacore T100; summary sentence to Table 6.
Test [5] has the same target. Description: SPR, Biacore T100; antibody captured on anti-human IgG chip, recombinant human CD4 flowed; 1:1 binding model. On the procedure: as §1
The measurement of a binding activity was carried out according to the method described in Example 7(2). The association rate constant ka, the dissociation rate constant kd and the dissociation constant KD (kd/ka) of respective antibodies thus obtained are shown in Table 6.
The source holds these as a separate data set.

Residue numbers refer to the chain shown, from its start. Bounds are passed on as bounds.

B1: anti-CD4 rat monoclonal antibody KM4068 (antibody, V domains shown)
VH: QVQLKESGPGLVQPSQTLSLTCTVSGLSLTSNSVSWIRQPPGKGLEWMGIIWSNGDTDYNSAIKSRLSISRDTSKSQVFLKMNSLQTEDTAMYFCANPYYGYNFPFDYWGQGVMVTVSS
VL: DIQMTQSPASLSASLEEIVTITCKASQGIDNYLSWYQQKPGKSPQLLIYDATSLADGVPSRFSGSRSGTQYSLKISRPQVDDSGIYYCLQSYSTPFTFGSGTKLEIK
notes: Rat hybridoma IgG with a kappa light chain
Usually Kd stands for the concentration at which binding is half-saturated. As a reminder, the koff is the first-order rate constant of dissociation. The kon is a measure of how fast the partners come together. As for B1, in test [1], the Kd came to 1.1 nM, the koff turned out to be 0.00204 s⁻¹ and the kon was 1.85e+06 M⁻¹ s⁻¹.

B2: anti-CD4 chimeric antibody KM4048 (antibody, V domains shown)
VH: B1 VH
VL: B1 VL
notes: Variable regions of rat KM4068 joined to the '113F type' human IgG1/IgG3 heavy chain constant region (US2007/0148165) and a human kappa constant region; Expressed in FUT8 knockout CHO cells (0% fucose)
As to B2, in test [2], the Kd came out at 0.651 nM, the koff is 0.00381 s⁻¹ and the kon stood at 5.85e+06 M⁻¹ s⁻¹.

B3: anti-CD4 chimeric antibody KM4049 (antibody, V domains shown)
VH: B1 VH with L27S, I50V, T57A, N97S, N103Y
VL: B1 VL with G28A, N31A
notes: Variable regions of rat KM4069 joined to the '113F type' human IgG1/IgG3 heavy chain constant region (US2007/0148165) and a human kappa constant region; Expressed in FUT8 knockout CHO cells (0% fucose)
As for B3, in test [2], the Kd is 0.2 nM, the koff is 0.00116 s⁻¹ and the kon came to 5.77e+06 M⁻¹ s⁻¹.

B4: anti-CD4 rat monoclonal antibody KM4069 (antibody, V domains shown)
VH: B1 VH with L27S, I50V, T57A, N97S, N103Y
VL: B1 VL with G28A, N31A
notes: as for B1
For B4, in test [1], the Kd was 0.482 nM, the koff was found to be 0.000584 s⁻¹ and the on-rate constant (kon) was 1.21e+06 M⁻¹ s⁻¹.

B5: anti-CD4 rat monoclonal antibody KM4065 (antibody, V domains shown)
VH: EVQLVESGGGLVQPGRSMKLSCAASGFTFSNYGMAWVRQAPTKGLEWVATISYDGSITYYRDSVKGRFTISRDHAKSTLYLQMNSLRSEDTATYYCTREEQYSSWYFDFWGPGIMVTVSS
VL: DIVLTQSPALAVSLGQRATISCRASQSVSISSHDLMQWYQQKPGQQPKLLIYDAFNLASGIPVRFSGSGSGTDFTLTIDPVQADDIATYYCQQSKDDPYTFGAGTKLELK
notes: as for B1
As for B5, in test [1], the Kd is 0.00426 nM, the koff was found to be 1.52e-06 s⁻¹ and the kon stood at 357000 M⁻¹ s⁻¹.

B6: anti-CD4 humanized antibody HV3LV0 (antibody, V domains shown)
VH: B5 VH with M18L, K19R, T42G, H74N, A75S, S77N, S88A, P112Q, M115L
VL: DIQLTQSPSSLSASVGDRVTITCRASQSVSISSHDLMQWYQQKPGKAPKLLIYDAFNLASGVPSRFSGSGSGTDFTLTISSLQPEDFATYYCQQSKDDPYTFGQGTKLEIK
notes: Expressed from the humanized antibody expression vector pKANTEX93
Turning to B6, in test [3], the “binding activity relative to the anti-CD4 chimeric antibody KM4045” value is 0.5 fold of KM4045. Further, the Kd in test [4] was no more than 0.1 nM. In test [5], the Kd was less than 0.00752 nM, the koff is less than 1e-05 s⁻¹ and the kon stood at 1.33e+06 M⁻¹ s⁻¹.

B7: anti-CD4 humanized antibody HV4LV0 (antibody, V domains shown)
VH: B5 VH with K19R, T42G, H74N, A75S, S77N, S88A, P112Q, M115L
VL: B6 VL
notes: as for B6
As to B7, the “binding activity relative to the anti-CD4 chimeric antibody KM4045” value in test [3] is 0.5 fold of KM4045. The Kd in test [4] was no more than 0.1 nM. In test [5], the Kd is less than 0.0126 nM, the koff is less than 1e-05 s⁻¹ and the kon turned out to be 791000 M⁻¹ s⁻¹.

B8: anti-CD4 humanized antibody HV0LV0 (antibody, V domains shown)
VH: EVQLVESGGGLVQPGRSLRLSCAASGFTFSNYGMAWVRQAPGKGLEWVATISYDGSITYYRDSVKGRFTISRDNSKNTLYLQMNSLRAEDTAVYYCAREEQYSSWYFDFWGQGTLVTVSS
VL: B6 VL
notes: CDRs of KM4065 grafted into human framework regions; Expressed from the humanized antibody expression vector pKANTEX93
B8: the Kd in test [4] is no more than 0.1 nM. Also, in test [5], the Kd was 0.0195 nM, the koff was 2.86e-05 s⁻¹ and the kon was found to be 1.47e+06 M⁻¹ s⁻¹.

B9: anti-CD4 humanized antibody HV2LV0 (antibody, V domains shown)
VH: B8 VH with A97T, T114I
VL: B6 VL
notes: Expressed from the humanized antibody expression vector pKANTEX93; also called KM8045; humanized antibody KM8045
Regarding B9, the “binding activity relative to the anti-CD4 chimeric antibody KM4045” value in test [3] was 0.5 fold of KM4045. The Kd in test [4] is no more than 0.1 nM. Further, in test [5], the Kd is less than 0.00877 nM, the koff is less than 1e-05 s⁻¹ and the kon is 1.14e+06 M⁻¹ s⁻¹.

B10: anti-CD4 rat monoclonal antibody KM4066 (antibody, V domains shown)
VH: EVQLEESGGGLVQPGRSLKLSCLASGFTFSNYGMNWIRQAPGKGLEWVASISGSSTYIYYADTVKGRFTISRENAENTLYLQMTSLRSEDTALYYCAREGSSTDRYYEVSFAYWGQGTLVTVSS
VL: DVVLTQTPVSLSVTLGDQASISCRSSQSLEYSDGYTYLEWYLQKPGQSPQVLIYGVSNRFSGVPDRFIGSGSGTDFTLKISRVEPEDLGVYYCFQATHDPYTFGAGTRLELK
notes: as for B1
As for B10, in test [1], the Kd is 0.0882 nM, the koff came out at 0.000118 s⁻¹ and the kon turned out to be 1.34e+06 M⁻¹ s⁻¹.

B11: anti-CD4 chimeric antibody KM4046 (antibody, V domains shown)
VH: B10 VH
VL: B10 VL
notes: Variable regions of rat KM4066 joined to the '113F type' human IgG1/IgG3 heavy chain constant region (US2007/0148165) and a human kappa constant region; Expressed in FUT8 knockout CHO cells (0% fucose)
B11: in test [2], the Kd stood at 0.0614 nM, the koff was 5.12e-05 s⁻¹ and the kon was 834000 M⁻¹ s⁻¹.

B12: anti-CD4 human antibody 6G5-1 (antibody, V domains shown)
VH: QVQLQQWGAGLLKPSETLSLTCAVYGGSFSGYYWSWIRQPPGKGLEWIGEINHSGSTNYNPSLKSRVTISVDTSKNQFSLKLSSVTAADTAVYYCARVINWFDPWGQGTLVTVSS
VL: DIQMTQSPSSVSASVGDRVTITCRASQDISSWLAWYQHKPGKAPKLLIYAASSLQSGVPSRFSGSGSGTDFTLTISSLQPEDFATYYCQQANSFPYTFGQGTKLEIKR
Consider B12, for which, in test [2], the Kd came to 1.46 nM, the koff is 0.000872 s⁻¹ and the kon is 595000 M⁻¹ s⁻¹. In test [5], the Kd was determined as 1.54 nM, the koff came to 0.000824 s⁻¹ and the kon was found to be 534000 M⁻¹ s⁻¹.

B13: anti-CD4 rat monoclonal antibody KM4067 (antibody, V domains shown)
VH: QVKLLQSGAALVKPGASVKMSCKASGYTFTDYWVHWVKQSHGKSLEWIGEIYPNNNTTNFNEKFKGKATLTVDKFTSTAYMELSRLTSEDSAIYYCTRGTVYYGLGYFDHWGQGVMVTVSS
VL: DIRMTQSPASLSASLGETVNIECLASEDVYSDLAWYQQKPGKSPQLLIYNANNLQSGVPSRFSGSGSGTRYSLKINSLQSEDVATYFCQQYNNYPPYTFGAGTKLELK
notes: as for B1
Consider B13, for which, in test [1], the Kd was found to be 0.541 nM, the koff is 0.000473 s⁻¹ and the kon was determined as 875000 M⁻¹ s⁻¹.

B14: anti-CD4 chimeric antibody KM4047 (antibody, V domains shown)
VH: B13 VH
VL: B13 VL
notes: Variable regions of rat KM4067 joined to the '113F type' human IgG1/IgG3 heavy chain constant region (US2007/0148165) and a human kappa constant region; Expressed in FUT8 knockout CHO cells (0% fucose)
B14: in test [2], the Kd amounted to 0.369 nM, the koff turned out to be 0.000488 s⁻¹ and the on-rate constant (kon) was 1.33e+06 M⁻¹ s⁻¹.

The values are drawn from patent US20100310573A1 (Kyowa Kirin, published 2010).
